Experimental data taken from US20200181261A1.

Experiments:
[1] = target: human CEACAM6, full-length, on cells (human) (UniProt P40199); assay: FACS, 5 µg/ml, HPAC cells
[2] = target: human CEACAM6, full-length, on cells (human) (UniProt P40199); assay: FACS, 5 µg/ml, DAN-G cells
[3] = target: human CEACAM6, full-length, on cells (human) (UniProt P40199); assay: FACS, 5 µg/ml, AsPC-1 cells
[4] = target: human CEACAM6, full-length, on cells (human) (UniProt P40199); assay: FACS, 5 µg/ml, KS cells
[5] = target: human CEACAM6, full-length, on cells (human) (UniProt P40199); assay: FACS, transfected HeLa cells
[6] = target: human CEACAM6, full-length, on cells (human) (UniProt P40199); assay: FACS, 5 µg/ml, SNU-1 cells
[7] = target: human CEACAM6, full-length, on cells (human) (UniProt P40199); assay: FACS, 5 µg/ml, MCF7 cells
[8] = target: human CEACAM6, full-length, on cells (human) (UniProt P40199); assay: FACS, 5 µg/ml, NCI-H1688 cells
[9] = target: human CEACAM6, full-length, on cells (human) (UniProt P40199); assay: FACS, 5 µg/ml, BT-474 cells
[10] = target: human CEACAM6, full-length, on cells (human) (UniProt P40199); assay: FACS, 5 µg/ml, T-47D cells
[11] = target: human CEACAM6, full-length, on cells (human) (UniProt P40199); assay: FACS, 5 µg/ml, SNU-C1 cells
[12] = target: human CEACAM6, full-length, on cells (human) (UniProt P40199); assay: FACS, 5 µg/ml, NCI-H2228 cells
[13] = target: human CEACAM6, extracellular (mature form), R&D Systems 3934-CM (human) (UniProt P40199); assay: SPR, antibody captured, antigen as analyte
human CEACAM6, extracellular (mature form), R&D Systems 3934-CM (human), sequence (P40199 other isoform, or with tags, fused parts or gaps limits assumed): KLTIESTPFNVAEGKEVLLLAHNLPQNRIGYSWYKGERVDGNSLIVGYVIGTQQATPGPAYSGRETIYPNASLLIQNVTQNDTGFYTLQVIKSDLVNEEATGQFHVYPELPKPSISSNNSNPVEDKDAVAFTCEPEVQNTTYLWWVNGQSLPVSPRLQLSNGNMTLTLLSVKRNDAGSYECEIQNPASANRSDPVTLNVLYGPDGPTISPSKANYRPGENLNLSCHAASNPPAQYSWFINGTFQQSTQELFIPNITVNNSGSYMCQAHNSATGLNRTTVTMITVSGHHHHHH

[14] = target: human CEACAM6, full-length, on cells (human) (UniProt P40199); assay: FACS, 5 µg/ml, NCI-H1437 cells
[15] = target: human CEACAM6, full-length, on cells (human) (UniProt P40199); assay: FACS, 5 µg/ml, A549 cells
[16] = target: human CEACAM6, full-length, on cells (human) (UniProt P40199); assay: FACS, 5 µg/ml, ZR-75-1 cells
[17] = target: human CEACAM6, full-length, on cells (human) (UniProt P40199); assay: FACS, 5 µg/ml, KM-12 cells
[18] = target: human CEACAM6, full-length, on cells (human) (UniProt P40199); assay: FACS, 5 µg/ml, LoVo cells
[19] = target: human CEACAM6, full-length, on cells (human) (UniProt P40199); assay: FACS, 5 µg/ml, NCI-H441 cells
[20] = target: human CEACAM6, full-length, on cells (human) (UniProt P40199); assay: FACS, 5 µg/ml, HT55 cells
[21] = target: human CEACAM6, full-length, on cells (human) (UniProt P40199); assay: FACS, 5 µg/ml, HT29 cells
[22] = target: human CEACAM6, full-length, on cells (human) (UniProt P40199); assay: FACS, 5 µg/ml, CL-34 cells
[23] = target: human CEACAM6, full-length, on cells (human) (UniProt P40199); assay: FACS, 5 µg/ml, HCC827 cells
[24] = target: human CEACAM6, full-length, on cells (human) (UniProt P40199); assay: FACS, 5 µg/ml, HCC-2935 cells
[25] = target: human CEACAM6, full-length, on cells (human) (UniProt P40199); assay: FACS, 5 µg/ml, MCF7/AdrVp cells
[26] = target: human CEACAM6, full-length, on cells (human) (UniProt P40199); assay: FACS, 5 µg/ml, RPMI-8226 cells
[27] = target: human CEACAM6, full-length, on cells (human) (UniProt P40199); assay: FACS, 5 µg/ml, NCI-H1993 cells
[28] = target: human CEACAM6, full-length, on cells (human) (UniProt P40199); assay: FACS, 5 µg/ml, HCC2998 cells
[29] = target: human CEACAM6, full-length, on cells (human) (UniProt P40199); assay: FACS, 5 µg/ml, BxPc3 cells
[30] = target: human CEACAM6, full-length, on cells (human) (UniProt P40199); assay: FACS, 5 µg/ml, WiDr cells
[31] = target: human CEACAM6, full-length, on cells (human) (UniProt P40199); assay: FACS, 5 µg/ml, Calu-3 cells
[32] = target: human CEACAM6, full-length, on cells (human) (UniProt P40199); assay: FACS, 5 µg/ml, HPAFII cells
[33] = target: human CEACAM6, full-length, on cells (human) (UniProt P40199); assay: FACS, 5 µg/ml, MDA-MB-361 cells
[34] = target: human CEACAM6, full-length, on cells (human) (UniProt P40199); assay: FACS, 5 µg/ml, SW1116 cells

human CEACAM6, full-length, on cells (human), sequence (P40199 35-320 V239G): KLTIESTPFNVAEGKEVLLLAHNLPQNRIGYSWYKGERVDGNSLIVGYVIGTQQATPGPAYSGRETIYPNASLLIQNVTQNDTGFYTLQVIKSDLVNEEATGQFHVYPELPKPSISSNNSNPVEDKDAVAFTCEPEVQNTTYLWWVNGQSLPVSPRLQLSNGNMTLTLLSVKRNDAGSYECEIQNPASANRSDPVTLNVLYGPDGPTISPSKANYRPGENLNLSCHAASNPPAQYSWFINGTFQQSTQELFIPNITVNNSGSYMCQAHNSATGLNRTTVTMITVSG

FACS median fluorescence (medianfluorescence) [1]: > 10000
FACS median fluorescence (medianfluorescence) [2]: 10 to 100
FACS median fluorescence (medianfluorescence) [3]: 1000 to 10000
FACS median fluorescence (medianfluorescence) [4]: 1000 to 10000
FACS median fluorescence (medianfluorescence) [5]: 1000 to 10000
FACS median fluorescence (medianfluorescence) [6]: 1000 to 10000
FACS median fluorescence (medianfluorescence) [7]: 10 to 100
FACS median fluorescence (medianfluorescence) [8]: 10 to 100
FACS median fluorescence (medianfluorescence) [9]: 1000 to 10000
FACS median fluorescence (medianfluorescence) [10]: 10 to 100
FACS median fluorescence (medianfluorescence) [11]: 100 to 1000
FACS median fluorescence (medianfluorescence) [12]: 100 to 1000
Kd [13]: 22 nM
FACS median fluorescence (medianfluorescence) [14]: 1000 to 10000
FACS median fluorescence (medianfluorescence) [15]: 1000 to 10000
FACS median fluorescence (medianfluorescence) [16]: 100 to 1000
FACS median fluorescence (medianfluorescence) [17]: 100 to 1000
FACS median fluorescence (medianfluorescence) [18]: 100 to 1000
FACS median fluorescence (medianfluorescence) [19]: 100 to 1000
FACS median fluorescence (medianfluorescence) [20]: 1000 to 10000
FACS median fluorescence (medianfluorescence) [21]: 100 to 1000
FACS median fluorescence (medianfluorescence) [22]: 10 to 100
FACS median fluorescence (medianfluorescence) [23]: 100 to 1000
FACS median fluorescence (medianfluorescence) [24]: > 10000
FACS median fluorescence (medianfluorescence) [25]: 10 to 100
FACS median fluorescence (medianfluorescence) [26]: 10 to 100
FACS median fluorescence (medianfluorescence) [27]: 1000 to 10000
FACS median fluorescence (medianfluorescence) [28]: 100 to 1000
FACS median fluorescence (medianfluorescence) [29]: 1000 to 10000
FACS median fluorescence (medianfluorescence) [30]: 100 to 1000
FACS median fluorescence (medianfluorescence) [31]: 10 to 100
FACS median fluorescence (medianfluorescence) [32]: 1000 to 10000
FACS median fluorescence (medianfluorescence) [33]: 1000 to 10000
FACS median fluorescence (medianfluorescence) [34]: 1000 to 10000
Substance: 9A6 (mouse IgG1) (antibody)
